Series [1] has as its system HeLa Kyoto. Kind of series: solubility in G1/S (NP-40 vs SDS abundance) (log2 ratio); higher = more soluble. To be noted: cell cycle stage: G1/S.
The test system of series [2] is HeLa Kyoto. Kind of series: melting temperature (median over replicates), in situ; higher = more thermally stable.
Series [3] has as its system HeLa Kyoto. Kind of series: solubility change mitosis vs G1/S (difference of NP-40 vs SDS log2 ratios) (log2 ratio difference); higher = more soluble in mitosis.
For series [4], the system named is HeLa Kyoto. Kind of series: thermal stability score vs G1/S (z-score of summed log2 fold changes over temperatures); higher = more thermally stable than in G1/S.
Where [5] appears, read: cell cycle stage: early G1 (4.5 h after nocodazole release).
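Wherever melting temperature (median over replicates), in situ is given: HeLa Kyoto cells synchronized by double thymidine or nocodazole block, proteins quantified by TMT10plex mass spectrometry, three independent biological replicates.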
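Wherever solubility change mitosis vs G1/S (difference of NP-40 vs SDS log2 ratios) is given: synchronized HeLa Kyoto cells (double thymidine block for G1/S, nocodazole release for mitosis), protein amounts in NP-40 versus SDS lysates quantified by mass spectrometry, three biological replicates.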
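Wherever solubility in G1/S (NP-40 vs SDS abundance) is given: HeLa Kyoto cells arrested at G1/S by double thymidine block, proteins quantified by TMT10plex mass spectrometry in mild NP-40 versus SDS extracts, three biological replicates.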
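Wherever thermal stability score vs G1/S (z-score of summed log2 fold changes over temperatures) is given: synchronized HeLa Kyoto cells, proteins quantified by TMT10plex mass spectrometry, three biological replicates, mitosis taken 0.5 h after nocodazole release, G1/S directly after double thymidine block.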

For the sequence “METGAAELYDQALLGILQHVGNVQDFLRVLFGFLYRKTDFYRLLRHPSDRMGFPPGAAQALVLQVFKTFDHMARQDDEKRRQELEEKIRRKEEEEAKTVSAAAAEKEPVPVPVQEIEIDSTTELDGHQEVEKVQPPGPVKEMAHGSQEAEAPGAVAGAAEVPREPPILPRIQEQFQKNPDSYNGAVRENYTWSQDYTDLEVRVPVPKHVVKGKQVSVALSSSSIRVAMLEENGERVLMEGKLTHKINTESSLWSLEPGKCVLVNLSKVGEYWWNAILEGEEPIDIDKINKERSMATVDEEEQAVLDRLTFDYHQKLQGKPQSHELKVHEMLKKGWDAEGSPFRGQRFDPAMFNISPGAVQF [NUDCD3]”, the “solubility in G1/S (log2)” value with HeLa Kyoto [1] was 0.212. For the same sequence, the melting temperature in the series with HeLa Kyoto [2] (cell cycle stage: G1/S) stood at 51 °C; in the series on HeLa Kyoto [2] (cell cycle stage: mitosis), 50.9 °C. In addition, the “solubility change mitosis (log2)” value with HeLa Kyoto [3] is -0.097. For the same sequence, the thermal stability score was determined as 0.442 with HeLa Kyoto [4] (setting [5]) and 0.3 in the series with HeLa Kyoto [4] (cell cycle stage: mitosis).

For the sequence “METGTAPLVAPPRRHGAPAAPSPPPRGSRAGPVVVVAPGPPVTTATSAPVTLVAPGEARPAWVPGSAETSAPAPAPAPAPAPAVTGSTVVVLTLEASPEAPKPQLPSGPESPEPAAVAGVETSRALAAGADSPKTEEARPSPAPGPGTPTGTPTRTPSRTAPGALTAKPPLAPKPGTTVASGVTARSASGQVTGGHGAAAATSASAGQAPEDPSGPGTGPSGTCEAPVAVVTVTPAPEPAENSQDLGSTSSLGPGISGPRGQAPDTLSYLDSVSLMSGTLESLADDVSSMGSDSEINGLALRKTDKYGFLGGSQYSGSLESSIPVDVARQRELKWLDMFSNWDKWLSRRFQKVKLRCRKGIPSSLRAKAWQYLSNSKELLEQNPGKFEELERAPGDPKWLDVIEKDLHRQFPFHEMFAARGGHGQQDLYRILKAYTIYRPDEGYCQAQAPVAAVLLMHMPAEQAFWCLVQICDKYLPGYYSAGLEAIQLDGEIFFALLRRASPLAHRHLRRQRIDPVLYMTEWFMCIFARTLPWASVLRVWDMFFCEGVKIIFRVALVLLRHTLGSVEKLRSCQGMYETMEQLRNLPQQCMQEDFLVHEVTNLPVTEALIERENAAQLKKWRETRGELQYRPSRRLHGSRAIHEERRRQQPPLGPSSSLLSLPGLKSRGSRAAGGAPSPPPPVRRASAGPAPGPVVTAEGLHPSLPSPTGNSTPLGSSKETRKQEKERQKQEKERQKQEKEREKERQKQEKEREKQEKEREKQEKERQKQEKKAQGRKLSLRRKADGPPGPHDGGDRPSAEARQDAYF [TBC1D10B]”, the “solubility in G1/S (log2)” value in the series on HeLa Kyoto [1] turned out to be 0.0909. Also, the values for the melting temperature with HeLa Kyoto [2] (cell cycle stage: G1/S) and with HeLa Kyoto [2] (cell cycle stage: mitosis) were 51.2 °C and 52.2 °C, respectively. The “solubility change mitosis (log2)” value with HeLa Kyoto [3] was -0.137. For the same sequence, the thermal stability score in the series with HeLa Kyoto [4] (setting [5]) is 0.22; in the series with HeLa Kyoto [4] (cell cycle stage: mitosis), 0.904.

As to “METILEQQRRYHEEKERLMDVMAKEMLTKKSTLRDQINSDHRTRAMQDRYMEVSGNLRDLYDDKDGLRKEELNAISGPNEFAEFYNRLKQIKEFHRKHPNEICVPMSVEFEELLKARENPSEEAQNLVEFTDEEGYGRYLDLHDCYLKYINLKASEKLDYITYLSIFDQLFDIPKERKNAEYKRYLEMLLEYLQDYTDRVKPLQDQNELFGKIQAEFEKKWENGTFPGWPKETSSALTHAGAHLDLSAFSSWEELASLGLDRLKSALLALGLKCGGTLEERAQRLFSTKGKSLESLDTSLFAKNPKSKGTKRDTERNKDIAFLEAQIYEYVEILGEQRHLTHENVQRKQARTGEEREEEEEEQISESESEDEENEIIYNPKNLPLGWDGKPIPYWLYKLHGLNINYNCEICGNYTYRGPKAFQRHFAEWRHAHGMRCLGIPNTAHFANVTQIEDAVSLWAKLKLQKASERWQPDTEEEYEDSSGNVVNKKTYEDLKRQGLL [SF3A3]”, the “solubility in G1/S (log2)” value in the series with HeLa Kyoto [1] came out at 0.132. In addition, the melting temperature with HeLa Kyoto [2] (cell cycle stage: G1/S) stood at 49.8 °C; in the series on HeLa Kyoto [2] (cell cycle stage: mitosis), 48.1 °C. In addition, the “solubility change mitosis (log2)” value in the series on HeLa Kyoto [3] is 0.129. Besides, the thermal stability score was 0.0461 in the series with HeLa Kyoto [4] (setting [5]) and 0.769 in the series with HeLa Kyoto [4] (cell cycle stage: mitosis).

For “METQLSNGPTCNNTANGPTTINNNCSSPVDSGNTEDSKTNLIVNYLPQNMTQEELKSLFGSIGEIESCKLVRDKITGQSLGYGFVNYIDPKDAEKAINTLNGLRLQTKTIKVSYARPSSASIRDANLYVSGLPKTMTQKELEQLFSQYGRIITSRILVDQVTGISRGVGFIRFDKRIEAEEAIKGLNGQKPPGATEPITVKFANNPSQKTNQAILSQLYQSPNRRYPGPLAQQAQRFRLDNLLNMAYGVKRFSPMTIDGMTSLAGINIPGHPGTGWCIFVYNLAPDADESILWQMFGPFGAVTNVKVIRDFNTNKCKGFGFVTMTNYDEAAMAIASLNGYRLGDRVLQVSFKTNKTHKA [ELAVL2]”, in the series on HeLa Kyoto [1], the “solubility in G1/S (log2)” value was 0.208. In addition, the melting temperature in the series with HeLa Kyoto [2] (cell cycle stage: G1/S) is 52.6 °C; in the series on HeLa Kyoto [2] (cell cycle stage: mitosis) it was 52.2 °C. The “solubility change mitosis (log2)” value in the series on HeLa Kyoto [3] is -0.0286. Also, the results for the thermal stability score in the series with HeLa Kyoto [4] (setting [5]) and in the series on HeLa Kyoto [4] (cell cycle stage: mitosis) were -0.26 and -1.01, respectively.

Consider “METVISSDSSPAVENEHPQETPESNNSVYTSFMKSHRCYDLIPTSSKLVVFDTSLQVKKAFFALVTNGVRAAPLWDSKKQSFVGMLTITDFINILHRYYKSALVQIYELEEHKIETWREVYLQDSFKPLVCISPNASLFDAVSSLIRNKIHRLPVIDPESGNTLYILTHKRILKFLKLFITEFPKPEFMSKSLEELQIGTYANIAMVRTTTPVYVALGIFVQHRVSALPVVDEKGRVVDIYSKFDVINLAAEKTYNNLDVSVTKALQHRSHYFEGVLKCYLHETLETIINRLVEAEVHRLVVVDENDVVKGIVSLSDILQALVLTGGEKKP [PRKAG1]”, for which the “solubility in G1/S (log2)” value with HeLa Kyoto [1] amounted to 0.164. The melting temperature with HeLa Kyoto [2] (cell cycle stage: G1/S) was 50.7 °C; in the series on HeLa Kyoto [2] (cell cycle stage: mitosis), 51.2 °C. In addition, the “solubility change mitosis (log2)” value in the series on HeLa Kyoto [3] is -0.127. For the same sequence, the figures for the thermal stability score with HeLa Kyoto [4] (setting [5]) and in the series on HeLa Kyoto [4] (cell cycle stage: mitosis) were 0.779 and 1.52, respectively.

(Values after the supplement of paper PMC5998384.)
